Biological target: human CLDN18.1 (human) (UniProt P56856)
Assay: FACS, U2OS-CLDN18.1 cells, antibody at 200 nM

B1: IgG1 isotype control antibody (antibody, V domains shown)
VH: EVQLEQSGAELMKPGASVKISCKATGYTFTTYWIEWIKQRPGHSLEWIGEILPGSDSTYYNEKVKGKVTFTADASSNTAYMQLSSLTSEDSAVYYCARGDGFYVYWGQGTTLTVSS
VL: DIELTQSPATLSVTPGDSVSLSCRASQSISNNLHWYQQKSHESPRLLIKYTSQSMSGIPSRFSGSGSGTDFTLSINSVETEDFGVYFCQQSGSWPRTFGGGTKLDIKR
- MFI: 6040

Source: patent publication US20240409629A1
